The text below walks through data of PMC6542021.

As usually defined, the EC50 is the concentration at which the effect is half-maximal.

The target in experiment [1] is FcγRIII CD16 on NK cells (human (endogenous in NK cells of healthy donors)) (UniProt P08637). The experiment can be described thus: flow cytometry on cells; PBMC of healthy donors incubated with the indicated concentrations of NKG2D-Fc-ADCC, followed by an anti-human PE conjugate; EC50 from MFI by a sigmoidal dose-response curve (GraphPad Prism); one representative experiment of three. On the technique in general: A flow cytometer gives signals particle by particle.
UniProt P08637, sequence (P08637 17-254): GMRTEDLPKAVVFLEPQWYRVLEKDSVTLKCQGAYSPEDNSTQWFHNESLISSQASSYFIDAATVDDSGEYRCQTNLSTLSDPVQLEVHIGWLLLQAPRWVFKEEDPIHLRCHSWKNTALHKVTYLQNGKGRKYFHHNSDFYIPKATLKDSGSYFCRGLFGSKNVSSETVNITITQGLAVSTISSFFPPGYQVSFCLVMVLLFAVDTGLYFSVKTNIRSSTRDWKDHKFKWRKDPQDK

Experiment [2] shares this target. As to the kind of experiment: FACS; NK cells within PBMC.
Another experiment concerns the target CD3 (Homo sapiens). The experiment can be described thus: FACS; T cells within PBMC. The following applies: other; Only the NKG2D limits and the CH2 changes are printed. UCHT1 VH/VL are taken from the 1XIW scFv complex (entity order VL=3, VH=4 from memory). Human CH1/hinge and human C-kappa are assumed (KappaSelect purification, anti-human PE detection). CH2 end (EU 340) is by convention. G236 (P01857 119) is deleted; EU number = P01857 number + 117. Junction residues are not printed. Fab interchain disulfide; modification not given.

CD3 (Homo sapiens), sequence (P07766 23-207, chain 1 of 3): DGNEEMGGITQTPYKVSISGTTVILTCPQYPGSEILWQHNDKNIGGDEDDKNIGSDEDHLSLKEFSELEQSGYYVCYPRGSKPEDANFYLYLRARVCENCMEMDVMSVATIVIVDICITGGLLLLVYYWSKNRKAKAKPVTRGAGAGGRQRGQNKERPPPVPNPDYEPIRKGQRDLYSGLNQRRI
CD3 (Homo sapiens), sequence (P04234 22-171, chain 2 of 3, further chain): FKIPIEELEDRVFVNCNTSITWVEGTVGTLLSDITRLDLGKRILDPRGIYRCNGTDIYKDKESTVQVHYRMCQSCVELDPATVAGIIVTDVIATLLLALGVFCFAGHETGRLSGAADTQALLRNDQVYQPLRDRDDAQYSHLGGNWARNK
CD3 (Homo sapiens), sequence (P09693 23-182, chain 3 of 3, further chain): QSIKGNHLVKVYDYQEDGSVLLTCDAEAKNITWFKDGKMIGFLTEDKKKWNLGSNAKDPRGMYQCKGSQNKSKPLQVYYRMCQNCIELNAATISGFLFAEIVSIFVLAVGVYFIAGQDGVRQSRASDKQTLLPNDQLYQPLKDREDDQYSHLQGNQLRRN

Regarding “NKG2D-Fc-ADCC fusion protein (from UniProt P26718 73-216) (Fc fusion)”, in experiment [1], the concentration giving a half-maximal response (EC50) was 20 nM.
“NKG2D-CD16 bispecific fusion protein (from UniProt P26718 78-216)” gave a half-maximal effective concentration (EC50) in experiment [2] of 2.2 nM.

B1: NKG2D-CD3 bispecific fusion protein, P26718 78-216 (protein)
chain 1: EVQLQQSGPELVKPGASMKISCKASGYSFTGYTMNWVKQSHGKNLEWMGLINPYKGVSTYNQKFKDKATLTVDKSSSTAYMELLSLTSEDSAVYYCARSGYYGDSDWYFDVWGQGTTLTVFSASTKGPSVFPLAPSSKSTSGGTAALGCLVKDYFPEPVTVSWNSGALTSGVHTFPAVLQSSGLYSLSSVVTVPSSSLGTQTYICNVNHKPSNTKVDKKVEPKSCDKTHTSPPSPAPPVAGPSVFLFPPKPKDTLMISRTPEVTCVVVGVSHEDPEVKFNWYVDGVEVHNAKTKPREEQYQSTYRVVSVLTVLHQDWLNGKEYKCKVSNKQLPSPIEKTISKAKFLNSLFNQEVQIPLTESYCGPCPKNWICYKNNCYQFFDESKNWYESQASCMSQNASLLKVYSKEDQDLLKLVKSYHWMGLVHIPTNGSWQWEDGSILSPNLLTIIEMQKGDCALYASSFKGYIENCSTPNTYICMQRTV
chain 2: MDIQMTQTTSSLSASLGDRVTISCRASQDIRNYLNWYQQKPDGTVKLLIYYTSRLHSGVPSKFSGSGSGTDYSLTISNLEQEDIATYFCQQGNTLPWTFAGGTKLEIKRTVAAPSVFIFPPSDEQLKSGTASVVCLLNNFYPREAKVQWKVDNALQSGNSQESVTEQDSKDSTYSLSSTLTLSKADYEKHKVYACEVTHQGLSSPVTKSFNRGEC
As for B1, the EC50 with CD3 (Homo sapiens) is 2.1 nM.
